Experimental data as given in patent US20250011363A1, “OPTIMIZED SHORTENED PEPTIDE THAT BINDS TO ACETYLCHOLINE RECEPTOR, AND USE THEREOF” (SKINMED CO., LTD., priority 2021, published 2025).

How the values were obtained:
acetylcholine receptor [1] = test: SPR, peptide at 10 µM on acetylcholine receptor
acetylcholine receptor [2] = test: SPR, AchR immobilised, peptide 10 uM

| Binding affinity (RU) (acetylcholine receptor [1]) | Binding affinity (RU) (acetylcholine receptor [2]) | Binder |
| --- | --- | --- |
|  | 40 | RRCTAR [6mer-1-1105] |
|  | 22 | RRKEAK [6mer-1-1120] |
|  | 33 | KKDTIK [6mer-1-1118] |
|  | 31 | RKFTKK [6mer-1-1089] |
|  | 27 | KKDPWK [6mer-1-1112] |
|  | 33 | RRTMGR [6mer-1-1122] |
|  | 43 | RKCAFR [6mer-1-1115] |
|  | 37 | RRKSDR [6mer-1-1093] |
|  | 27 | KREDNK [6mer-1-1103] |
|  | 28 | KKTWWR [6mer-1-1121] |
|  | 28 | RRCTMK [6mer-1-1113] |
|  | 31 | KRIWVR [6mer-1-1119] |
|  | 38 | RRASPR [6mer-1-1111] |
|  | 43 | KRMSHK [6mer-1-1100] |
|  | 41 | RRHCDK [6mer-1-1126] |
|  | 42 | RKDNIK [6mer-1-1131] |
|  | 41 | KRCCVR [6mer-1-1109] |
|  | 28 | KRNSAR [6mer-1-1104] |
|  | 27 | KKTMWR [6mer-1-1090] |
|  | 40 | KKEWFR [6mer-1-1117] |
|  | 39 | RKNCNK [6mer-1-1097] |
|  | 37 | RRECDK [6mer-1-1101] |

| Binding affinity (RU) (acetylcholine receptor [1]) | Binding affinity (RU) (acetylcholine receptor [2]) | Binder |
| --- | --- | --- |
|  | 42 | RRMAIK [6mer-1-1094] |
|  | 23 | RKPEPR [6mer-1-1096] |
|  | 21 | KKDEIR [6mer-1-1124] |
|  | 27 | RRCHVK [6mer-1-1095] |
|  | 43 | RRAHNK [6mer-1-1108] |
|  | 41 | RRDNVK [6mer-1-1123] |
|  | 43 | RKYHDK [6mer-1-1092] |
|  | 42 | RKKDMR [6mer-1-1098] |
|  | 39 | KRFMNK [6mer-1-1106] |
|  | 39 | RKDHAR [6mer-1-1129] |
|  | 34 | RKMMMK [6mer-1-1127] |
|  | 24 | RRKTDR [6mer-1-1099] |
|  | 39 | KKKKPK [6mer-1-1128] |
|  | 32 | KKDDGK [6mer-1-1091] |
|  | 36 | KRCPPR [6mer-1-1107] |
|  | 35 | KRHPFR [6mer-1-1116] |
|  | 38 | RRETHK [6mer-1-1088] |
|  | 31 | RKATFR [6mer-1-1130] |
|  | 26 | KKPTDR [6mer-1-1125] |
|  | 35 | KRFTKK [6mer-1-1102] |
|  | 24 | RKFTER [6mer-1-1110] |
|  | 38 | KKFNFK [6mer-1-1114] |

Second part, the binder before the results:

| Binder | Binding affinity (RU) (acetylcholine receptor [1]) | Binding affinity (RU) (acetylcholine receptor [2]) |
| --- | --- | --- |
| RQQYK [5mer-52] | 50 |  |
| KRFCK [5mer-56] | 59 |  |
| RLFTK [5mer-60] | 86 |  |
| KWLQR [5mer-54] | 66 |  |
| KSFSK [5mer-351] | 75 |  |
| KVRSK [5mer-358] | 50 |  |
| KQLYR [5mer-57] | 73 |  |
| KVVTR [5mer-64] | 76 |  |
| KWRTR [5mer-49] | 62 |  |
| KQVYR [5mer-349] | 50 |  |
| KSYYK [5mer-350] | 59 |  |
| KRFQK [5mer-359] | 79 |  |
| RLVTR [5mer-53] | 50 |  |
| RSYQR [5mer-361] | 58 |  |
| KREAMK [6mer-1-1085] |  | 33 |
| KQVLR [5mer-356] | 65 |  |
| KQLTK [5mer-62] | 70 |  |
| RRFSR [5mer-55] | 58 |  |

| Binder | Binding affinity (RU) (acetylcholine receptor [1]) | Binding affinity (RU) (acetylcholine receptor [2]) |
| --- | --- | --- |
| KWVSK [5mer-58] | 75 |  |
| KKPWKR [6mer-1-1087] |  | 27 |
| KSQLK [5mer-353] | 59 |  |
| RKEANK [6mer-1-1086] |  | 22 |
| KLLCR [5mer-50] | 63 |  |
| KRVRK [5mer-363] | 59 |  |
| KLQYR [5mer-59] | 68 |  |
| RLILK [5mer-61] | 66 |  |
| RQLCK [5mer-360] | 66 |  |
| RSQTR [5mer-354] | 64 |  |
| RLLRK [5mer-63] | 86 |  |
| KQRLK [5mer-362] | 62 |  |
| RGFRK [5mer-357] | 54 |  |
| KLLYR [5mer-355] | 87 |  |
| KKCCPK [6mer-1-1084] |  | 25 |
| RLVRK [5mer-352] | 76 |  |
| RSLQR [5mer-51] | 70 |  |
